T1: cyno IL-6 (cynomolgus monkey, UniProt P79341 28-212, limits assumed)
T1 sequence (looked up): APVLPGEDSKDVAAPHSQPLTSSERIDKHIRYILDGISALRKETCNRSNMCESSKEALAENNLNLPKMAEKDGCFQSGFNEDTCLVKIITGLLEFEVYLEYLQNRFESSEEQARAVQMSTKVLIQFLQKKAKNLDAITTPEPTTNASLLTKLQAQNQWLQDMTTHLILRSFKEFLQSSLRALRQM

B1: F027201040 (VHH)
VHH: EVQLVESGGGVVQPGGSLRLSCAASGFTLAYYAIGWFRQAPGKEREGVSCISGSVGTTYYADSVKGRFTISRDNAKNTVYLQMNSLRPEDTALYYCVRSSWFDCGVQGRDLGNEYDYRGQGTLVTVSS
notes: also called IL6006B12 (L11V, S52aG, S60A, K83R, V89L)
B2: F027200927 (bispecific antibody)
chain: DVQLVESGGGVVQPGGSLRLSCTASGFTFSTADMGWFRQAPGKGREFVARISGIDGTTYYDEPVKGRFTISRDNSKNTVYLQMNSLRPEDTALYYCRSPRYADQWSAYDYWGQGTLVTVSSGGGGSGGGSEVQLVESGGGVVQPGGSLRLSCAASGRTFSSYVMGWFRQAPGKEREFVSTINWAGSRGYYADSVKGRFTISRDNAKNTVYLQMNSLRPEDTALYYCAASAGGFLVPRVGQGYDYWGQGTLVTVSSGGGGSGGGSEVQLVESGGGVVQPGGSLRLSCAASGFTFRSFGMSWVRQAPGKGPEWVSSISGSGSDTLYADSVKGRFTISRDNSKNTLYLQMNSLRPEDTALYYCTIGGSLSRSSQGTLVTVSSGGGGSGGGSEVQLVESGGGVVQPGGSLRLSCAASGFSLDYYGVGWFRQAPGKEREGVSCISSSEGDTYYADSVKGRFTISRDNAKNTVYLQMNSLRPEDTALYYCATDLSDYGVCSRWPSPYDYWGQGTLVKVSSA

Assays:
human IL-6 [1] = molecular target: T2, human IL-6 (human, UniProt P05231 30-212); test: SPR
T2 construct: also called hIL-6

human IL-6 [2] = molecular target: T2, human IL-6; test: cell-based or functional assay
cyno IL-6 [3] = molecular target: T1, cyno IL-6; test: cell-based or functional assay
human TNF-α [4] = molecular target: T3, human TNF-α (human, UniProt P01375 77-233); test: cell-based or functional assay
T3 sequence (P01375 77-233 limits assumed): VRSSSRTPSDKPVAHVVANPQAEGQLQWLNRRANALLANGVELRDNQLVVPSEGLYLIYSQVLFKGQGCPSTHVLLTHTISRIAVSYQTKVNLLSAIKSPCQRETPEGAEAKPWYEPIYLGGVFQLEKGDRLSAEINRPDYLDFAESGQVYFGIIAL

cyno TNF-α [5] = molecular target: T4, cyno TNF-α (cynomolgus monkey, UniProt P79337 77-233); test: cell-based or functional assay
T4 sequence (P79337 77-233 limits assumed): as the sequence (P01375 77-233 limits assumed) above, with L37V, R44T, T72N, R138L counted along it

human IL-6 [6] = molecular target: T2, human IL-6; test: cell-based or functional assay; remark: listed apart in the source
cyno IL-6 [7] = molecular target: T1, cyno IL-6; test: cell-based or functional assay; remark: listed apart in the source
human TNF-α [8] = molecular target: T3, human TNF-α; test: cell-based or functional assay; remark: listed apart in the source
cyno TNF-α [9] = molecular target: T4, cyno TNF-α; test: cell-based or functional assay; remark: listed apart in the source

| Binder | koff (human IL-6 [1]) [s⁻¹] | Ratio IC50 reference anti-IL-6 mAb1/Nb (human IL-6 [2]) [ratio] | hIL-6 TF1 proliferation assay (IC50, pM) (human IL-6 [2]) [pM] | cyno IL-6 TF1 proliferation assay (IC50, pM) (cyno IL-6 [3]) [pM] | Ratio IC50 reference anti-TNF-α mAb/Nb (human TNF-α [4]) [ratio] | hTNF-α Nfkb assay (IC50, pM) (human TNF-α [4]) [pM] | cyno TNF-α NFkb assay (IC50, pM) (cyno TNF-α [5]) [pM] | IC50 hIL-6 TF1 proliferation assay (human IL-6 [6]) [pM] | Ratio IC50 cyno IL-6/hIL-6 (cyno IL-6 [7]) [ratio] | IC50 hTNF-α Nfkb assay (human TNF-α [8]) [pM] | Ratio IC50 cyno TNFα/hTNFα (cyno TNF-α [9]) [ratio] |
| --- | --- | --- | --- | --- | --- | --- | --- | --- | --- | --- | --- |
| B1 | 5.9e-05 | – | – | – | – | – | – | – | – | – | – |
| B2 | – | 1.8 | 71 | 72 | 4.2 | 59 | 254 | 71.2 | 1 | 59.3 | 4.3 |
